Columns and labels:
[1] = biological target: human CD3 (human) (UniProt P07766); test: Biacore; glofitamab formulations F2 and F5 after storage at 40°C, relative to initial
[2] = biological target: human CD3 (human) (UniProt P07766); test: Biacore; glofitamab formulations F1, F3 and F4 after storage at 40°C, relative to initial

UniProt P07766, sequence (P07766 23-126): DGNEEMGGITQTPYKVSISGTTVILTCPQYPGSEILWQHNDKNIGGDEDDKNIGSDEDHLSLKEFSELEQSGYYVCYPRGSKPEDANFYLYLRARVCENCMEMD

Work on glofitamab (bispecific antibody) yielded a loss of CD3 binding [1] of less than 50% and a loss of CD3 binding [2] of 10 to 20%.

From patent EP4810519A2
